Test [1] has as its target T1, Meditope enabled Panitumumab.
T1 construct: also called Panitumumab enabled
Nature of the test: BLI Octet, antibody on anti-human Fc tip, peptide 37 nM. (In general: In BLI a coated tip is dipped into the sample, and binding shifts an interference pattern.)

Test [2] deals with T2, Meditope enabled Lintuzumab.
T2 construct: also called Lintuzumab enabled
Described as above.

Test [3] has the same target. In words: BLI Octet, antibody on anti-human Fc tip, peptide 333 nM.
Test [4] has the same target. In words: BLI Octet, antibody on anti-human Fc tip, peptide 111 nM.
The target in test [5] is T1, Meditope enabled Panitumumab. In words: BLI Octet, antibody on anti-human Fc tip, peptide 12 nM.
Test [6] deals with T2, Meditope enabled Lintuzumab. The description is as above.
The target is the same in test [7]. In words: BLI Octet, antibody on anti-human Fc tip, peptide 1000 nM; Peptide 20.
Test [8] addresses T3, Meditope enabled Ocaratuzumab.
T3 construct: also called Ocaratuzumab enabled
In words: BLI Octet, antibody on anti-human Fc tips.

Test [9] has as its target T4, Meditope enabled Clivatuzumab.
T4 construct: also called Clivatuzumab enabled
In words: BLI Octet, antibody on anti-human Fc tips.

A further test concerns the target MBI_CD19_2; (MOR208). In words: BLI Octet, antibody on anti-human Fc tips.
The target in the next test is MBI_CD19_1; (SAR3419). Nature of the test: BLI Octet, antibody on anti-human Fc tips.
For test [10], the target named is T5, Photo optimized trastuzumab; meditope enabled (Tmab).
T5 construct: also called photo-optimized trastuzumab V2; photo-optimized meditope enabled Trastuzumab variant 2
Nature of the test: BLI Octet, antibody on anti-human Fc tips; Peptide 19, Table 9.

Test [11] deals with T5, Photo optimized trastuzumab; meditope …. In words: BLI Octet, antibody on anti-human Fc tips.
The target is the same in test [12]. In words: BLI Octet, antibody on anti-human Fc tips. The source holds these as a separate data set.
Test [13] has as its target T6, Meditope enabled Trastuzumab.
T6 construct: also called Trastuzumab enabled
Nature of the test: BLI Octet, antibody on anti-human Fc tips.

The values below come from patent US20190111149A1 (MEDITOPE BIOSCIENCES, published 2019).

Usually Kd stands for the equilibrium constant for the complex coming apart.

T5 sequence (heavy, as listed by the source, chain 1 of 2): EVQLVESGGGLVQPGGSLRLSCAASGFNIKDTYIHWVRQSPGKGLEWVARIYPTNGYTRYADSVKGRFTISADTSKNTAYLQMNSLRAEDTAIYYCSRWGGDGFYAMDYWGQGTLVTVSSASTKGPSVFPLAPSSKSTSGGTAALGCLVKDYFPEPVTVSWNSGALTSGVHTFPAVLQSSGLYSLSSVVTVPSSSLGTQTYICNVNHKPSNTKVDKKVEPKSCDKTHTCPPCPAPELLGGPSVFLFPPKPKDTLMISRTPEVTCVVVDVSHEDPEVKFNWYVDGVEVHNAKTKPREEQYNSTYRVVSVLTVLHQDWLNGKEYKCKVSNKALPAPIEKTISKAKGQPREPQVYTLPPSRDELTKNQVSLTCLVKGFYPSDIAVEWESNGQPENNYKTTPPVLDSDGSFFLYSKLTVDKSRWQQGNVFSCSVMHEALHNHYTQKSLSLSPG
T5 sequence (light, as listed by the source, chain 2 of 2): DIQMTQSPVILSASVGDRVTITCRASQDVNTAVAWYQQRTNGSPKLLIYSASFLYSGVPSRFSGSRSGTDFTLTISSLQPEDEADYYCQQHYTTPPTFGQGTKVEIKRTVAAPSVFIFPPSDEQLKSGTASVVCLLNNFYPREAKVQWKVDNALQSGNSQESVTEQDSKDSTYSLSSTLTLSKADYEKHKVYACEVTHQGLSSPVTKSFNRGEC
T2 sequence (VH, as listed by the source, chain 1 of 2): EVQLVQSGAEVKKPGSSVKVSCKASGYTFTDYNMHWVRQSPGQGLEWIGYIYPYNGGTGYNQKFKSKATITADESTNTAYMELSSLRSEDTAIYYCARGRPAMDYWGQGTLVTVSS
T2 sequence (VL, as listed by the source, chain 2 of 2): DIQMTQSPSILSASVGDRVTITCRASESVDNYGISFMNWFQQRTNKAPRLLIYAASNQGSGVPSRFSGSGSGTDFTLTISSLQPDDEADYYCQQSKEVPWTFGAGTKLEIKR
T1 sequence (VH, as listed by the source, chain 1 of 2): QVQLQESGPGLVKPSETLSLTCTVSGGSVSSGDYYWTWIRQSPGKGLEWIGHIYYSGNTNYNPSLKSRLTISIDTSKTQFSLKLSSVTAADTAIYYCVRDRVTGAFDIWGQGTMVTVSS
T1 sequence (VL, as listed by the source, chain 2 of 2): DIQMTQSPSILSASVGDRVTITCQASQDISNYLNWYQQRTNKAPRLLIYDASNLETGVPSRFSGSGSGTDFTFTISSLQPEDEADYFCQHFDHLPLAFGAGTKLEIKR
T6 sequence (heavy, as listed by the source, chain 1 of 2): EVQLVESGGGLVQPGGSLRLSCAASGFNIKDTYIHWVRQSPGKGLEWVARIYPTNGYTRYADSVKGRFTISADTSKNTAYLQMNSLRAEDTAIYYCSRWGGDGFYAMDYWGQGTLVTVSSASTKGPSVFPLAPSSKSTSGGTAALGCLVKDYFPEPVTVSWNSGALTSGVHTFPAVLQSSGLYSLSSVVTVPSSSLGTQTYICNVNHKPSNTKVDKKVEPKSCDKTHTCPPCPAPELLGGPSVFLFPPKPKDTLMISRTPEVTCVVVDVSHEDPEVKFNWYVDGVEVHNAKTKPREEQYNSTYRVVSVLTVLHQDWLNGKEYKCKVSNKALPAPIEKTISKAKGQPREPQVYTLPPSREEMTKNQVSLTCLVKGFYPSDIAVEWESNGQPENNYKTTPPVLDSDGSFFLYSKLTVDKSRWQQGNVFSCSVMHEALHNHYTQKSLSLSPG
T6 sequence (light, as listed by the source, chain 2 of 2): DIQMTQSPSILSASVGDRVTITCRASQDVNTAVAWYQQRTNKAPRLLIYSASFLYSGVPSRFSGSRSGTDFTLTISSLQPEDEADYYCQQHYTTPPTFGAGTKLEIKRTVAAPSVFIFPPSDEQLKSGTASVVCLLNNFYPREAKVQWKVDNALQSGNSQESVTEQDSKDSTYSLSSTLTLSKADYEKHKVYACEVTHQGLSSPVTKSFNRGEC
Chain of MBI_CD19_2; (MOR208) (heavy, as listed by the source, chain 1 of 2): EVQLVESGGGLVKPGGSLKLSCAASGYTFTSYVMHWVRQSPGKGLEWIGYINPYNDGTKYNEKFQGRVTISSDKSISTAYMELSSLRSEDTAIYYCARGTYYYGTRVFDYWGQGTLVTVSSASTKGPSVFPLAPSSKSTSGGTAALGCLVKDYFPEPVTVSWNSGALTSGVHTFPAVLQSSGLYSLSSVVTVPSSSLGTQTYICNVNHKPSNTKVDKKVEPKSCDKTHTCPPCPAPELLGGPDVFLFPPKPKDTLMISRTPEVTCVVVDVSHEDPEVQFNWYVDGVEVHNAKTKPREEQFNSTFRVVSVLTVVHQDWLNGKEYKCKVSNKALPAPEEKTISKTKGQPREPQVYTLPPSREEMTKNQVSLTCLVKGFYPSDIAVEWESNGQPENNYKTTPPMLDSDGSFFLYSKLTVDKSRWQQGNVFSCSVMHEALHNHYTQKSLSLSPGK
Chain of MBI_CD19_2; (MOR208) (light, as listed by the source, chain 2 of 2): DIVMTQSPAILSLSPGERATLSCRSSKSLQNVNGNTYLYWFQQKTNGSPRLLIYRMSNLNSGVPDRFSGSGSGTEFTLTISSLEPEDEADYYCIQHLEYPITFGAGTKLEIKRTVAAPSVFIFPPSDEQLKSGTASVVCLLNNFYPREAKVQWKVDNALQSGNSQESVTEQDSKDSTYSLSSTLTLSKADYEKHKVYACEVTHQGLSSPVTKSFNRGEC
Chain of MBI_CD19_1; (SAR3419) (heavy, as listed by the source, chain 1 of 2): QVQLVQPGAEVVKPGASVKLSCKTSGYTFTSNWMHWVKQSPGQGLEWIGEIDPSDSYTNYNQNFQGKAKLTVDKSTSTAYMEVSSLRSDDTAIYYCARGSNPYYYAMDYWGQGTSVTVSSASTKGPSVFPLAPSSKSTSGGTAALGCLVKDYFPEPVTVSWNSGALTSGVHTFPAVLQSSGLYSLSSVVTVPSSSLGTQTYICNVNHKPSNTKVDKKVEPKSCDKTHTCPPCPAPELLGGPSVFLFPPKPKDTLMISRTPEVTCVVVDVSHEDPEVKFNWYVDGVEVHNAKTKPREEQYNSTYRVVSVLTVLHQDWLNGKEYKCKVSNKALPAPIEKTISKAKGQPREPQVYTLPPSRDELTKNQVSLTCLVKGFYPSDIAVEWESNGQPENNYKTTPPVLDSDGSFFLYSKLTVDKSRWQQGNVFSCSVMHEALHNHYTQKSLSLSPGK
Chain of MBI_CD19_1; (SAR3419) (light, as listed by the source, chain 2 of 2): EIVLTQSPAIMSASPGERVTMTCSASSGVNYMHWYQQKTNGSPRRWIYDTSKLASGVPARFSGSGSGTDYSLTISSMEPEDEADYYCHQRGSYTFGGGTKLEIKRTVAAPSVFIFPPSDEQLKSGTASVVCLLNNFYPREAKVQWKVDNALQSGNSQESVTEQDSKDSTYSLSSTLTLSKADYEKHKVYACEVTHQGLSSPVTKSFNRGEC
T4 sequence (heavy, as listed by the source, chain 1 of 2): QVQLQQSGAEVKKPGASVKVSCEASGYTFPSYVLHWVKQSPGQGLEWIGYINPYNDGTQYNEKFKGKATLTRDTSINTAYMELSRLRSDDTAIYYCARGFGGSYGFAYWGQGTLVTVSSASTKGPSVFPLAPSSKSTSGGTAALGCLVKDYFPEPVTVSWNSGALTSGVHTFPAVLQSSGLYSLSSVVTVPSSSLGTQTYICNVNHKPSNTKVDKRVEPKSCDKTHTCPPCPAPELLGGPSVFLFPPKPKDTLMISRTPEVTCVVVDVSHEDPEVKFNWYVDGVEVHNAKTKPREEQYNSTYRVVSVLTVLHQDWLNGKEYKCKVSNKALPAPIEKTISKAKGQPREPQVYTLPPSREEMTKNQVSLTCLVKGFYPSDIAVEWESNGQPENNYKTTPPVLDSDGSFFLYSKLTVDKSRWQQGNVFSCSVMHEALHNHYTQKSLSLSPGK
T4 sequence (light, as listed by the source, chain 2 of 2): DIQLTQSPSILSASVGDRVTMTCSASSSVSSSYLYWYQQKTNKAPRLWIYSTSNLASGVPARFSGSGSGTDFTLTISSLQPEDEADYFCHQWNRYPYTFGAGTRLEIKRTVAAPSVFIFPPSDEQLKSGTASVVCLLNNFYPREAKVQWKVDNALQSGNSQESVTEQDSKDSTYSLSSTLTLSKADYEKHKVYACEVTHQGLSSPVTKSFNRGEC
T3 sequence (heavy, as listed by the source, chain 1 of 2): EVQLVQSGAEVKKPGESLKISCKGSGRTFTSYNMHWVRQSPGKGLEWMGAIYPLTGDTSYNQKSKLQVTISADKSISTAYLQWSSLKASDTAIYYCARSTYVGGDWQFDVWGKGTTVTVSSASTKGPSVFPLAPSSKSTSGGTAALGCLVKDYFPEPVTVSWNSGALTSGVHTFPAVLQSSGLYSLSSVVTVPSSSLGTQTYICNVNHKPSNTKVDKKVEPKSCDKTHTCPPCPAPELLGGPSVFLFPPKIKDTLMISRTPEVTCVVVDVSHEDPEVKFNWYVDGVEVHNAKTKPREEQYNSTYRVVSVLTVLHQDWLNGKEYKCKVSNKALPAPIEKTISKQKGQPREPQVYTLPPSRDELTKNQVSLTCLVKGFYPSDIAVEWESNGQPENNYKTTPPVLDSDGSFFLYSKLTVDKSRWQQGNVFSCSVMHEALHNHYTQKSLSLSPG
T3 sequence (light, as listed by the source, chain 2 of 2): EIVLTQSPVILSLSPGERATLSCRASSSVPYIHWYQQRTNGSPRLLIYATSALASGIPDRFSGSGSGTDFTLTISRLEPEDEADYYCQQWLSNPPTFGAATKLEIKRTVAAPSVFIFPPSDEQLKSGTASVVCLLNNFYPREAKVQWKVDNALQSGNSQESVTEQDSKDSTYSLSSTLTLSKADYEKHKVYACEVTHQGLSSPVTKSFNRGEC

B1: Peptide 19: Ac-…XRCGGGK with Duostatin; -Glu-vc-PAB-Duostatin-; X=(S)-2-amino-5-(3-methyl-3H-diazirin-3-yl) pentanoic acid (peptide)
peptide: not shown
modifications: N-terminal acetyl; X at position 10 = (S)-2-amino-5-(3-methyl-3H-diazirin-3-yl)pentanoic acid; -Glu-vc-PAB-Duostatin conjugated
notes: 5-carbon chain at position 10
For B1, the dissociation constant Kd in test [1] is below 0.001 nM; in test [2], 5680 nM; in test [3], 1170 nM; in test [4] it was 3000 nM; in test [5] it was below 0.001 nM; in test [6], 55.5 nM.

B2: Peptide 20: Ac-…XRCGGGK with Duostatin; -Glu-vc-PAB-Duostatin-; X=(S)-2-amino-6-(3-methyl-3H-diazirin-3-yl) hexanoic acid (peptide)
peptide: not shown
modifications: N-terminal acetyl; X at position 10 = (S)-2-amino-6-(3-methyl-3H-diazirin-3-yl)hexanoic acid; -Glu-vc-PAB-Duostatin conjugated
For the molecule B2, the Kd in [2] came out at 1210 nM; in [3] it was 6550 nM; in test [7] it was 19800 nM; in test [4], 3340 nM; in test [6], 246 nM.

B3: Peptide 19: Ac-…XRCGGGK with Duostatin; -Glu-vc-PAB-Duostatin-; X = (S)-2-amino-5-(3-methyl-3H-diazirin-3-yl) pentanoic acid (peptide)
peptide: not shown
modifications: N-terminal acetyl; X10 = (S)-2-amino-5-(3-methyl-3H-diazirin-3-yl)pentanoic acid; Glu-vc-PAB-Duostatin conjugated
notes: also called Peptide 19 (with Duostatin); Peptide 19 (with 1 Duostatin per peptide, DAR 2)
In the case of B3, the binding result (in [8]; in test [9]; in the test with MBI_CD19_1; (SAR3419)) was “no binding” throughout. Also, the equilibrium dissociation constant (Kd) with MBI_CD19_2; (MOR208) worked out at 33.8 nM; in test [10], 120 nM; in test [11] it was 33.8 nM; in [12], 42.8 nM; in [13], 149 nM.
